The target in the assay is GAL4 activation domain-HAB1 fusion protein (UniProt Q9CAJ0). The experiment in a line: cell-based or functional assay.
Chain of UniProt Q9CAJ0 (Q9CAJ0 23-511 limits assumed): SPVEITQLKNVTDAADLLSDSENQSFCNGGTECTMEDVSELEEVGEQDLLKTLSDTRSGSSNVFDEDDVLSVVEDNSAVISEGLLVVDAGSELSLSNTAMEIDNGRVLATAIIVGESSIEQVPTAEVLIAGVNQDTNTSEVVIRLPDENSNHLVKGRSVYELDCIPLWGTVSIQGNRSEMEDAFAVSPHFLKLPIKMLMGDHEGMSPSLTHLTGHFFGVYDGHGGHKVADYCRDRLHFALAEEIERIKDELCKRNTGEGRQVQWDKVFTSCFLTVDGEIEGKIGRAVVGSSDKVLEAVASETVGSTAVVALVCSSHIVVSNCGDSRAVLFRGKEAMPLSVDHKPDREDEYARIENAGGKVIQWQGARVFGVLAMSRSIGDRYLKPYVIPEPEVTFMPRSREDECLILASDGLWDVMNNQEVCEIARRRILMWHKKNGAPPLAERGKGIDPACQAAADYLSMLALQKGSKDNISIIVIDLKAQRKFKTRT

Consider “PYR1 mutant A160C (from UniProt P04386 1-147) (receptor)”, for which the Minimal conc. For ABA response is 0.25 µM. Still for that read-out and setting: in the case of “PYR1 mutant A160I (from UniProt P04386 1-147) (receptor)” it was 0.25 µM; in that of “PYR1 mutant A160V (from UniProt P04386 1-147) (receptor)”, 0.25 µM; in that of “PYR1 mutant E141C (from UniProt P04386 1-147) (receptor)”, 0.5 µM. Still for that read-out and setting: for “PYR1 mutant E141I (from UniProt P04386 1-147) (receptor)” the value was 0.25 µM; for “PYR1 mutant E141L (from UniProt P04386 1-147) (receptor)”, 0.25 µM. Regarding “PYR1 mutant E141M (from UniProt P04386 1-147) (receptor)”, the Minimal conc. For ABA response was determined as 0.25 µM.

Substance “PYR1 mutant E141N (from UniProt P04386 1-147) (receptor)” had a Minimal conc. For ABA response of 0.5 µM. On to “PYR1 mutant E141T (from UniProt P04386 1-147) (receptor)”, for which the Minimal conc. For ABA response came to 0.5 µM. For “PYR1 mutant E141V (from UniProt P04386 1-147) (receptor)”, the Minimal conc. For ABA response was determined as 0.5 µM. In the case of “PYR1 mutant E141W (from UniProt P04386 1-147) (receptor)”, the Minimal conc. For ABA response was found to be 0.5 µM. “PYR1 mutant E141Y (from UniProt P04386 1-147) (receptor)” showed a Minimal conc. For ABA response of 0.25 µM. Same read-out and setting: in the case of “PYR1 mutant F61L (from UniProt P04386 1-147) (receptor)” it was 0.25 µM; in that of “PYR1 mutant F61M (from UniProt P04386 1-147) (receptor)”, 0.25 µM. On the same count and under the same terms, in the case of “PYR1 mutant I110C (from UniProt P04386 1-147) (receptor)” it was 0.25 µM; in that of “PYR1 mutant I110S (from UniProt P04386 1-147) (receptor)”, 0.5 µM. Same read-out and setting: for “PYR1 mutant V81I (from UniProt P04386 1-147) (receptor)” the value was 0.25 µM. Turning to “PYR1 mutant V81Y (from UniProt P04386 1-147) (receptor)”, the Minimal conc. For ABA response stood at 0.25 µM. “PYR1F61L, A160C (from UniProt P04386 1-147) (receptor)” registered a uracil-independent growth (URA3 reporter, yeast two-hybrid) on medium with ABA of 50 nM. On the same count and under the same terms, for “PYR1F61L, V81I, I110C, A160V (from UniProt P04386 1-147) (receptor)” the value was 50 nM; for “PYR1F61M, A160V (from UniProt P04386 1-147) (receptor)”, 50 nM. Same read-out and setting: in the case of “PYR1F61M, I110S, A160V (from UniProt P04386 1-147) (receptor)” it was 50 nM.

These data come from patent publication US20160194653A1.
